Laboratory results published in US20250387484A1 (US Dept. of Health and Human Services, published 2025).
Residue numbers refer to the chain shown, from its start.

B1: antibody 14569 (antibody, human IgG4 S228P, kappa, V domains shown)
VH: EVQLVESGGGLVQPGGSLRLSCAASGYWFSSWGMSWVRQAPGKGLELVSTINGYGDTTYYPDSVKGRFTISRDNSKNTLYLQMNSLRAEDTAVYYCARDRDYSNSYYYAHDYWGQGTLVTVSS
VL: EIVLTQSPATLSLSPGERATLSCRASSYVSFMHWLQQKPGQAPRPWIYATMNLASGVPARFSGSGSGTDYTLTISSLEPEDFAVYYCQQWSSNPPAFGGGTKVEIKR
B2: antibody 14564 (antibody, human IgG4 S228P, kappa, V domains shown)
VH: B1 VH with Y27F, W28T
VL: B1 VL with M51A
B3: antibody 14572 (antibody, human IgG4 S228P, kappa, V domains shown)
VH: B1 VH with W32Y, S103T
VL: B1 VL

target: T1, cynomolgus CD25 (cynomolgus, UniProt H6WS54 22-213); experiment: SPR, Biacore 8K, antibody captured on Protein A chip, cynomolgus CD25 as analyte, 25 C
T1 construct: Analyte in the SPR assay; also called CD25 (sIL-2 Receptor α)
T1 sequence: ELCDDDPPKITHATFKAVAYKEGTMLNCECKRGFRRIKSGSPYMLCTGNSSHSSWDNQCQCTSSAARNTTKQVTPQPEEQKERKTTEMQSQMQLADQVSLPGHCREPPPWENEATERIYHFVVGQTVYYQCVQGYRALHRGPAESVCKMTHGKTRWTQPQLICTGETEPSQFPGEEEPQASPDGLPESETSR
Experimental: Running buffer was prepared by diluting one volume of 10× buffer with 9 volumes of degassed, filtered MilliQ water. Regeneration buffer (10 mM glycine) was prepared by dissolving glycine in MilliQ water and adjusting the pH to approximately 1.5-1.7. The assay was performed at 25° C. using HBS-EP+ as the running buffer. Antibodies were injected as capture on the Series S Sensor Chip Protein A. Antigens were diluted to multiple concentrations and injected over the surface of flow cell 1 and 2 as association phase, followed by injection of running buffer as dissociation phase.
All data were processed using the BIACORE™ 8K Evaluation software version 3.0. Flow cell 1 and blank injection of buffer in each cycle were used as double reference for Response Units (RU) subtraction. […] VH2+VL4 is a parental antibody (before affinity maturation).

**Q.** How did the Kd turn out when B1 was run?
**A.** 18.5 nM

**Q.** And the koff?
**A.** 0.000714 s⁻¹

**Q.** What about the kon of the same binder?
**A.** 38500 M⁻¹ s⁻¹

**Q.** Which results are given for B2?
**A.** Kd: 17.4 nM; koff: 0.000744 s⁻¹; kon: 42600 M⁻¹ s⁻¹

**Q.** What does the source list for B3?
**A.** Kd: 19.6 nM; koff: 0.000679 s⁻¹; kon: 34700 M⁻¹ s⁻¹

target: T2, human CD25 on KIT-225 cells (human, UniProt P01589 22-272); experiment: flow cytometry (FACS) on CD25-expressing KIT-225 cells, secondary antibody, MFI against antibody concentration
T2 construct: whole, on cells; also called hCD25; IL-2Rα
T2 sequence (looked up): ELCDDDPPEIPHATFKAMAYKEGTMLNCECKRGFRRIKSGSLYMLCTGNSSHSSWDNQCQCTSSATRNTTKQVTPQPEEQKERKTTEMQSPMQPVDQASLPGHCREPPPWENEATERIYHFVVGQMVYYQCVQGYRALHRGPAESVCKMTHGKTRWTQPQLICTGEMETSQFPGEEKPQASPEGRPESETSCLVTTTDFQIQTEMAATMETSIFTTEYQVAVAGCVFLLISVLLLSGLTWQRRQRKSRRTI
Experimental: KIT-225 cells were washed once with FACS buffer, counted, and resuspended at a concentration of 1×10⁶/mL in FACS buffer. To 5 mL (5×10⁶ total) of cells, 25 μL of viable dye (Thermo Fisher, L34974, equivalent to 1:200 dilution) was added and mixed well. After incubation at 4° C. for 30 minutes, cells were washed twice with FACS buffer (200×g, 5 minutes each). Cells were resuspended in 5 mL FACS buffer and 100 μL was added per well, followed by addition of 100 μL diluted antibody. The solution was mixed by pipetting up and down and then incubated at 4° C. for 60 minutes, after which cells were washed twice with FACS buffer (200×g, 5 minutes each). Cells were resuspended in 100 μL FACS buffer. Fifty μL of secondary antibody was diluted in 5 mL FACS buffer (equivalent to 1:100 dilution), and 100 μL was added to each well and mixed by pipetting up and down. Following incubation at 4° C. for 30 minutes, cells were washed twice with FACS buffer (200×g, 5 minutes each), and resuspended in approximately 250 μL FACS buffer. FACS analysis was performed with Attune Flow cytometer using tube reading module.

**Q.** B1 was tested. Which “EC50 (read off the curve)” value did it give?
**A.** ~0.5 µg/mL

**Q.** How did the “EC50 (read off the curve)” value turn out when B2 was run?
**A.** ~0.6 µg/mL

**Q.** Which “EC50 (read off the curve)” value does the source give for B3 here?
**A.** ~0.4 µg/mL
